Laboratory results taken from patent US20260242419A1, “A CYCLIC PEPTIDE FOR TRAPPING INTERLEUKIN-1 BETA” (Merck Sharp & Dohme LLC, priority 2023, published 2026).
Starred links: 1 amine or outer side, 2 acyl side, 3 side chain; linkers in the order of their positions; H or OH if unused. Non-standard residues stand in square brackets, D forms with d. orbOHorPhe4COOH = 4-[(1R,2S)-2-amino-2-carboxy-1-hydroxy-ethyl]benzoic acid, O=C([C@@H](N[*:1])[C@H](O)c1ccc(C(=O)[*:3])cc1)[*:2]; Phe4PyrimOMe = (S)-2-amino-3-(4-(2-methoxypyrimidin-5-yl)phenyl)propanoic acid, COc1ncc(-c2ccc(C[C@H](N[*:1])C(=O)[*:2])cc2)cn1; Phe4ImMe = (S)-2-amino-3-(4-(1-methyl-1H-imidazol-4-yl)phenyl)propanoic acid, Cn1cnc(-c2ccc(C[C@H](N[*:1])C(=O)[*:2])cc2)c1; Phe42ImMe = (S)-2-amino-3-(4-(1-methyl-1H-imidazol-2-yl)phenyl)propanoic acid, Cn1ccnc1-c1ccc(C[C@H](N[*:1])C(=O)[*:2])cc1; dProc3CH24Pal = (2R,3S)-3-(4-pyridylmethyl)pyrrolidine-2-carboxylic acid, O=C([C@H]1[C@@H](Cc2ccncc2)CCN1[*:1])[*:2]; SbOH4Pal = (2S,3S)-2-amino-3-hydroxy-3-(4-pyridyl)propanoic acid, O=C([C@@H](N[*:1])[C@@H](O[*:3])c1ccncc1)[*:2]; Phe4Pyrim = (S)-2-amino-3-(4-(pyrimidin-5-yl)phenyl)propanoic acid, O=C([C@H](Cc1ccc(-c2cncnc2)cc1)N[*:1])[*:2]; RbOH4Pal = (2S,3R)-2-amino-3-hydroxy-3-(4-pyridyl)propanoic acid, O=C([C@@H](N[*:1])[C@H](O[*:3])c1ccncc1)[*:2]; AlaPiperazAc = (S)-3-(4-acetylpiperazin-1-yl)-2-aminopropanoic acid, CC(=O)N1CCN(C[C@H](N[*:1])C(=O)[*:2])CC1; 4PyrimAla = (2S)-2-amino-3-pyrimidin-4-yl-propanoic acid, O=C([C@H](Cc1ccncn1)N[*:1])[*:2]; Ala(2-carboxypyrimidin-5-yl) = N[C@@H](Cc1cnc(C(=O)O)nc1)C(=O)O; Trp(4-Cl)(βS-Me) = C[C@@H](c1c[nH]c2cccc(Cl)c12)[C@H](N)C(=O)O; dPro(4R-(4-pyridylmethyl)) = O=C(O)[C@H]1C[C@@H](Cc2ccncc2)CN1; Trp(βS-Me,4-F) = C[C@@H](c1c[nH]c2cccc(F)c12)[C@H](N)C(=O)O; Bip(4'-COOH) = N[C@@H](Cc1ccc(-c2ccc(C(=O)O)cc2)cc1)C(=O)O; Ala(1-bicyclo(1.1.1)pentyl) = N[C@@H](CC12CC(C1)C2)C(=O)O; Phe(4-(4-pyridyl)) = N[C@@H](Cc1ccc(-c2ccncc2)cc1)C(=O)O; dPro(4R-Bzl(4-F)) = O=C(O)[C@H]1C[C@@H](Cc2ccc(F)cc2)CN1; dPro(3S-(4-F-Bn)) = O=C(O)[C@@H]1NCC[C@@H]1Cc1ccc(F)cc1; 1Nal(3S-Me) = C[C@@H](c1cccc2ccccc12)[C@H](N)C(=O)O; Ala(morpholin-4-yl) = N[C@@H](CN1CCOCC1)C(=O)O; Ala(piperazin-1-yl) = N[C@@H](CN1CCNCC1)C(=O)O; Ala(pyrimidin-5-yl) = N[C@@H](Cc1cncnc1)C(=O)O; Phe(4-COOH) = N[C@@H](Cc1ccc(C(=O)O)cc1)C(=O)O; Bip = N[C@@H](Cc1ccc(-c2ccccc2)cc1)C(=O)O; Pro(cis-4-F) = O=C(O)[C@@H]1C[C@H](F)CN1; Ala(4-THP) = N[C@@H](CC1CCOCC1)C(=O)O; Dap(CONH2) = NC(=O)NC[C@H](N)C(=O)O; d(αMeD) = C[C@@](N)(CC(=O)O)C(=O)O; 4Pal = N[C@@H](Cc1ccncc1)C(=O)O; aThr = C[C@H](O)[C@H](N)C(=O)O; Dab = NCC[C@H](N)C(=O)O; Aib = CC(C)(N)C(=O)O

B1: SEQ ID NO 292 (peptide)
peptide: cyclo([Bip][4Pal][Phe(4-COOH)]G[Pro(cis-4-F)][Trp(4-Cl)(βS-Me)][Aib]SW[d(αMeD)][Ala(pyrimidin-5-yl)]Q[Dab]G[dPro(4R-(4-pyridylmethyl))])
modifications: ring closure inferred; not fully specified (N-terminus); printed as cyclic, Bip-4Pal-Phe4COOH-G-Proc4F-SbMeW4Cl-Aib-S-W-daMeD-PyrimAla-Q-Dab-G-dProc4CH24Pal
B2: SEQ ID NO 293 (peptide)
peptide: cyclo([Bip][4Pal][Phe(4-COOH)]G[Pro(cis-4-F)][Trp(βS-Me,4-F)][Aib]SW[d(αMeD)][aThr]Q[Dab]G[dPro(4R-(4-pyridylmethyl))])
modifications: ring closure inferred; not fully specified (N-terminus); printed as cyclic, Bip-4Pal-Phe4COOH-G-Proc4F-SbMeW4F-Aib-S-W-daMeD-alT-Q-Dab-G-dProc4CH24Pal
B3: SEQ ID NO 294 (peptide)
peptide: cyclo([Bip][4Pal][Phe(4-COOH)]G[Pro(cis-4-F)][Trp(βS-Me,4-F)][Aib]SW[d(αMeD)][Ala(4-THP)]Q[Dab]G[dPro(4R-(4-pyridylmethyl))])
modifications: ring closure inferred; not fully specified (N-terminus); printed as cyclic, Bip-4Pal-Phe4COOH-G-Proc4F-SbMeW4F-Aib-S-W-daMeD-AlaTHP4-Q-Dab-G-dProc4CH24Pal

The binders below were run against Recombinant human IL-1β (BioLegend 579404) (human, UniProt P01584 117-269) (assay: cell-based or functional assay).

MRC5 IC50 [nM]	Binder
0.014	cyclo([Bip(4'-COOH)][4Pal][Phe(4-COOH)]G[Pro(cis-4-F)][Trp(βS-Me,4-F)][Aib]SW[Aib][Ala(2-carboxypyrimidin-5-yl)]Q[Dab]G[dPro(4R-(4-pyridylmethyl))]) (ring closure inferred) [SEQ ID NO 268]
0.014	cyclo([Bip][4Pal][Phe(4-COOH)]G[Pro(cis-4-F)][Trp(βS-Me,4-F)][Aib]SW[Aib][Ala(2-carboxypyrimidin-5-yl)]Q[Dab]G[dPro(4R-(4-pyridylmethyl))]) (ring closure inferred) [SEQ ID NO 269]
0.023	cyclo([Bip(4'-COOH)][4Pal][Phe(4-COOH)]G[Pro(cis-4-F)][Trp(βS-Me,4-F)][Aib]SW[Aib][Ala(pyrimidin-5-yl)]Q[Dap(CONH2)]G[dPro(4R-(4-pyridylmethyl))]) (ring closure inferred) [SEQ ID NO 270]
0.023	cyclo([Bip(4'-COOH)][4Pal][Phe(4-COOH)]G[Pro(cis-4-F)][Trp(βS-Me,4-F)][Aib]EW[Aib][AlaPiperazAc]QSG[dPro(4R-Bzl(4-F))]) (ring closure inferred) [SEQ ID NO 271]
0.018	cyclo([Bip(4'-COOH)][4Pal][Phe(4-COOH)]G[Pro(cis-4-F)][Trp(βS-Me,4-F)][Aib]SW[Aib][SbOH4Pal]Q[Dab]G[dPro(4R-Bzl(4-F))]) (ring closure inferred) [SEQ ID NO 272]
0.013	cyclo([Bip(4'-COOH)][4Pal][Phe(4-COOH)]G[Pro(cis-4-F)][Trp(βS-Me,4-F)][Aib]SW[Aib][RbOH4Pal]Q[Dab]G[dPro(4R-Bzl(4-F))]) (ring closure inferred) [SEQ ID NO 273]
0.026	cyclo([Bip(4'-COOH)][RbOH4Pal][Phe(4-COOH)]G[Pro(cis-4-F)][Trp(βS-Me,4-F)][Aib]SW[Aib][Ala(pyrimidin-5-yl)]Q[Dab]G[dPro(4R-Bzl(4-F))]) (ring closure inferred) [SEQ ID NO 274]
0.018	cyclo([Bip(4'-COOH)][4Pal][orbOHorPhe4COOH]G[Pro(cis-4-F)][Trp(βS-Me,4-F)][Aib]SW[Aib][Ala(pyrimidin-5-yl)]Q[Dab]G[dPro(4R-Bzl(4-F))]) (ring closure inferred) [SEQ ID NO 275]
0.017	cyclo([Bip(4'-COOH)][4Pal][Phe(4-COOH)]G[Pro(cis-4-F)][Trp(βS-Me,4-F)][Aib]EW[Aib]HQ[Dab]G[dPro(4R-Bzl(4-F))]) (ring closure inferred) [SEQ ID NO 276]
0.023	cyclo([Phe4F][4Pal][Phe(4-COOH)]G[Pro(cis-4-F)][Trp(βS-Me,4-F)][Aib]SW[d(αMeD)][Ala(pyrimidin-5-yl)]Q[Dab]G[dPro(3S-(4-F-Bn))]) (ring closure inferred) [SEQ ID NO 277]
0.021	cyclo(Y[4Pal][Phe(4-COOH)]G[Pro(cis-4-F)][Trp(βS-Me,4-F)][Aib]SW[d(αMeD)][Ala(pyrimidin-5-yl)]Q[Dab]G[dPro(3S-(4-F-Bn))]) (ring closure inferred) [SEQ ID NO 278]
0.013	cyclo([Phe4ImMe][4Pal][Phe(4-COOH)]G[Pro(cis-4-F)][Trp(βS-Me,4-F)][Aib]SW[d(αMeD)][Ala(pyrimidin-5-yl)]Q[Dab]G[dPro(3S-(4-F-Bn))]) (ring closure inferred) [SEQ ID NO 279]
0.016	cyclo([Phe42ImMe][4Pal][Phe(4-COOH)]G[Pro(cis-4-F)][Trp(βS-Me,4-F)][Aib]SW[d(αMeD)][Ala(pyrimidin-5-yl)]Q[Dab]G[dPro(3S-(4-F-Bn))]) (ring closure inferred) [SEQ ID NO 280]
0.012	cyclo([Phe4PyrimOMe][4Pal][Phe(4-COOH)]G[Pro(cis-4-F)][Trp(βS-Me,4-F)][Aib]SW[d(αMeD)][Ala(pyrimidin-5-yl)]Q[Dab]G[dPro(3S-(4-F-Bn))]) (ring closure inferred) [SEQ ID NO 281]
0.014	cyclo([Phe4Pyrim][4Pal][Phe(4-COOH)]G[Pro(cis-4-F)][Trp(βS-Me,4-F)][Aib]SW[d(αMeD)][Ala(pyrimidin-5-yl)]Q[Dab]G[dPro(3S-(4-F-Bn))]) (ring closure inferred) [SEQ ID NO 282]
0.016	cyclo([Phe(4-(4-pyridyl))][4Pal][Phe(4-COOH)]G[Pro(cis-4-F)][Trp(βS-Me,4-F)][Aib]SW[d(αMeD)][Ala(pyrimidin-5-yl)]Q[Dab]G[dPro(3S-(4-F-Bn))]) (ring closure inferred) [SEQ ID NO 283]
0.015	cyclo([Bip(4'-COOH)][Ala(1-bicyclo(1.1.1)pentyl)][Phe(4-COOH)]G[Pro(cis-4-F)][Trp(βS-Me,4-F)][Aib]SW[d(αMeD)][4PyrimAla]Q[Dab]G[dProc3CH24Pal]) (ring closure inferred) [SEQ ID NO 284]
0.013	cyclo([Bip(4'-COOH)][Ala(1-bicyclo(1.1.1)pentyl)][Phe(4-COOH)]G[Pro(cis-4-F)][Trp(βS-Me,4-F)][Aib]SW[d(αMeD)][4PyrimAla]Q[Dab]G[dPro(4R-(4-pyridylmethyl))]) (ring closure inferred) [SEQ ID NO 285]
0.01	cyclo([Bip(4'-COOH)][4Pal][Phe(4-COOH)]G[Pro(cis-4-F)][Trp(βS-Me,4-F)][Aib]SW[d(αMeD)][Ala(morpholin-4-yl)]Q[Dab]G[dPro(3S-(4-F-Bn))]) (ring closure inferred) [SEQ ID NO 286]
0.011	cyclo([Bip(4'-COOH)][4Pal][Phe(4-COOH)]G[Pro(cis-4-F)][Trp(βS-Me,4-F)][Aib]SW[d(αMeD)][Ala(piperazin-1-yl)]Q[Dab]G[dPro(3S-(4-F-Bn))]) (ring closure inferred) [SEQ ID NO 287]
0.019	cyclo([Bip][4Pal][Phe(4-COOH)]G[Pro(cis-4-F)][1Nal(3S-Me)][Aib]SW[d(αMeD)][aThr]Q[Dab]G[dPro(4R-(4-pyridylmethyl))]) (ring closure inferred) [SEQ ID NO 288]
0.015	cyclo([Bip][4Pal][Phe(4-COOH)]G[Pro(cis-4-F)][Trp(4-Cl)(βS-Me)][Aib]SW[d(αMeD)][aThr]Q[Dab]G[dPro(4R-(4-pyridylmethyl))]) (ring closure inferred) [SEQ ID NO 289]
0.018	cyclo([Bip][4Pal][Phe(4-COOH)]G[Pro(cis-4-F)][1Nal(3S-Me)][Aib]SW[d(αMeD)][Ala(4-THP)]Q[Dab]G[dPro(4R-(4-pyridylmethyl))]) (ring closure inferred) [SEQ ID NO 290]
0.018	cyclo([Bip][4Pal][Phe(4-COOH)]G[Pro(cis-4-F)][1Nal(3S-Me)][Aib]SW[d(αMeD)][Ala(pyrimidin-5-yl)]Q[Dab]G[dPro(4R-(4-pyridylmethyl))]) (ring closure inferred) [SEQ ID NO 291]
0.015	B1
0.01	B2
0.014	B3
